T1: MED27 (Mus musculus (endogenous in CH12 cells), UniProt Q9DB40 1-311)
T1 sequence (looked up): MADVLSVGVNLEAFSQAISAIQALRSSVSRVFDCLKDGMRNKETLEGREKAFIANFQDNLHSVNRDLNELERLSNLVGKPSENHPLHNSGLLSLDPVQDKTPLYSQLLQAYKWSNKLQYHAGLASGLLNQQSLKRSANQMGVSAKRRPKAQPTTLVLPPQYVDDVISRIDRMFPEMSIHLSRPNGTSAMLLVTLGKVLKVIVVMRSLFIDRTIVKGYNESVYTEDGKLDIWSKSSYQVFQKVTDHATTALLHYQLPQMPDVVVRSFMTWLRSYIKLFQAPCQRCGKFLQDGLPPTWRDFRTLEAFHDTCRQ

T2: MED17 (Mus musculus (endogenous in CH12 cells), UniProt Q8VCD5 1-649)
T2 sequence (looked up): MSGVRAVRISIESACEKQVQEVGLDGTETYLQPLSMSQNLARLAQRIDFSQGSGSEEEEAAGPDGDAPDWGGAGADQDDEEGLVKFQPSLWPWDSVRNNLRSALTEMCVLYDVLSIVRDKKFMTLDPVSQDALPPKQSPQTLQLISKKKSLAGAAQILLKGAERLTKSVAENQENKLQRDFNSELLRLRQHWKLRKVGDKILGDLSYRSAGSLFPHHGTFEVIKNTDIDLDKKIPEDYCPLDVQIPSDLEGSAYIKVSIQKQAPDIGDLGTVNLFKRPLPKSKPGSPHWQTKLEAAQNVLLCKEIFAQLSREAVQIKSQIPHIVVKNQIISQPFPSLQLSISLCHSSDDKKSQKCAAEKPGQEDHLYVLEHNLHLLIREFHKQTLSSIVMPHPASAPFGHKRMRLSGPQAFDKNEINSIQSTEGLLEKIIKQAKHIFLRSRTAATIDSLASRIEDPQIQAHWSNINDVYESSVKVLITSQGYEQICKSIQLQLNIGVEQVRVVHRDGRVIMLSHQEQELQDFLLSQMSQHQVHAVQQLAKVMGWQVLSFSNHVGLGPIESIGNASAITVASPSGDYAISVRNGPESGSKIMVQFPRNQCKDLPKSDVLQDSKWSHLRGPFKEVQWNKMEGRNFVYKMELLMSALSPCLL

T3: MED23 (Mus musculus (endogenous in CH12 cells), UniProt Q80YQ2 1-1367)
T3 sequence (looked up): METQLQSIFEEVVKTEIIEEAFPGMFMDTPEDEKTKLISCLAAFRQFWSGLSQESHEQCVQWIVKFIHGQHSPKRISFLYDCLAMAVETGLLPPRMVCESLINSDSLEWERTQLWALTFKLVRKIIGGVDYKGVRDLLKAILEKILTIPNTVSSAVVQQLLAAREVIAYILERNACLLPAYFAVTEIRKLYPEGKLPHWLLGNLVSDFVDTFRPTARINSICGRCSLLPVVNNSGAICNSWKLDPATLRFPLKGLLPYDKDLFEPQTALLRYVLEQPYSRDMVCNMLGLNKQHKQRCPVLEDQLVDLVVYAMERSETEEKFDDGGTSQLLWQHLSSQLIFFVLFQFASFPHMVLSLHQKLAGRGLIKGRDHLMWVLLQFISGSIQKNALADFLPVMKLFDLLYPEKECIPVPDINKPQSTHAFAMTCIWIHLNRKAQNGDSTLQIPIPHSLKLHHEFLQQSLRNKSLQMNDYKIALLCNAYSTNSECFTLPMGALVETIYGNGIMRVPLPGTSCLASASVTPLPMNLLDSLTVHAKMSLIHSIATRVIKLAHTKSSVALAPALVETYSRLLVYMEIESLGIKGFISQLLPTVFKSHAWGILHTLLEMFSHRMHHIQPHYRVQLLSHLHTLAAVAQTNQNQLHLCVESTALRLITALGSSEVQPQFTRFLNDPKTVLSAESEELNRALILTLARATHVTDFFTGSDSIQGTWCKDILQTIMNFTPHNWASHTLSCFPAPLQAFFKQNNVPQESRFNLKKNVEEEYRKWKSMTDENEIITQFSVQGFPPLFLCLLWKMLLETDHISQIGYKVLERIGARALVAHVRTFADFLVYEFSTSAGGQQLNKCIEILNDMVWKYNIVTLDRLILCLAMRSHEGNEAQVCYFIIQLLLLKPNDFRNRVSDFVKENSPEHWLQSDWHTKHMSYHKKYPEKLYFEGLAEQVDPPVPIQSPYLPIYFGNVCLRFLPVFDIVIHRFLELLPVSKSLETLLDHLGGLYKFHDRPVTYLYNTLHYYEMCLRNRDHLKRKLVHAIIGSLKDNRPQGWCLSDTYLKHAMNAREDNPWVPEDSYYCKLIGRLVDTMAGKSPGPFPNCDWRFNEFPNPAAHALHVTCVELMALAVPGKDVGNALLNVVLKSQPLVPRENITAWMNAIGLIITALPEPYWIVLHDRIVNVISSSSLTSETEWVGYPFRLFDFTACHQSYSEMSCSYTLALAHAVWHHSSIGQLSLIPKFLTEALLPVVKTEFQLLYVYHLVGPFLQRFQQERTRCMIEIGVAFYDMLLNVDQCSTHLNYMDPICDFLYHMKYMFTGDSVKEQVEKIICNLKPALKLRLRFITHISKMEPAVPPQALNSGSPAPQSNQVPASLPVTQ

B1: MED20 (natural protein, Mus musculus (endogenous in CH12 cells), UniProt Q9R0X0 1-212, looked up)
chain: MGVTCVSQMPVAEGKSLQQTVELLTKKLEMLGAEKQGTFCVDCETYHTAASTLGSQGQAGKLMYVMHNSEYPLSCFALFENGPCLIADTNFDVLMVKLKGFFQSAKASKIETRGTRYQYCDFLVKVGTVTMGPSARGISVEVEYGPCVVASDCWSLLLEFLQSFLGSHAPGAPTVFGNRHDAVYGPADTMIQYMELFNKIRKQQQVPVAGIR
B2: MED4 (natural protein, Mus musculus (endogenous in CH12 cells), UniProt Q9CQA5 1-270, looked up)
chain: MAASSSGEKEKERMGGVSGMAGLGSTRERLLSALEDLEVLSRELIEMLAISRNQKLLQLEEENQVLELLIHRDGDFQELMKLALNQGKVHHEMQALEKEVEKRDSDIQQLQKQLKEAEQILATAVYQAKEKLKSIEKARKGAISSEEIIKYAHRISASNAVCAPLTWVPGDPRRPYPTDLEMRSGLLGQMNNPSTSGVNGHLPGDALAAGRLPDVLAPQYPWQSNDMSVNMLPPNHSSDFLLEPPGHNKENEDDVEVMSTDSSSSSSDSD
B3: MED16 (natural protein, Mus musculus (endogenous in CH12 cells), UniProt Q6PGF3 1-828, looked up)
chain: MDLAYVCEWEKWAKSTYCPSLPLACAWSCRNLIAFTTDLRNDDQDLTHMIHILDTEHPWEVHSVSSGHSEAITCLEWDQSGSRLLSADADGQIKCWSMADHLANSWESSVGSQVEGDPIVALSWLHNGVKLALHVEKSGASSFGEKFSRVKFSPSLTLFGGKPMEGWIAVTVSGLVTVSLLKPSGQVLTSTESLCRLRGRVALADIAFTGGGNIVVAAADGSSASPVKFYKVCVSVVSEKCRIDTEILPSLFMRCTTDPNRKDRFPAITHLKFLARDMSEQVLLCASSQTSSLVECWSLRKEGLPVNNIFQQISPVVGDKQPMILKWRILSATNDLDRVSAVALPKLPISLTNTDLKVASDTQFYPGLGLALAFQDGSVHMVHRLSLQTMAVFYSSAPRSLDEPALKRPRTTCPAVHFKAMQLSWTSLALVGIDNHGKLSMLRISPSLGHPLEPKLALQHLLFLLEYCMVTGYDWWDILLHVQPGMVQSLVERLHEEYTRQKPALQQVLSTRILAMKASLCKLSPCTVARVCDYHTKLFLMAITSTLKSLLRPHFLNTPDKSPGDRLAEICAKITDVDIDKVMINLKTEEFVLDMNTLQALQQLLQWVGDFVLYLLVSLPNQGSPLRPGHSFLRDGTSLGMLRELMVVIRIWGLLKPSCLPVYTATSDTQDSMSLLFRLLTKLWICCRDEGAASEPDEGLVDECCLLPSQLLVPNLDWLPASDGLVSRLQPKQPLRLRFGRAPTLPSSTSTLQLDGLTRAPGQPKIDHLRRLHLGAYPTEECKACTRCGCVTMLKSPNKTTAVTQWEQRWIKNCLCGGLWRRVPLSCS
B4: MED24 (natural protein, Mus musculus (endogenous in CH12 cells), UniProt Q99K74 1-987, looked up)
chain: MKVVNLKQAILQAWKERWSDYQWAINMKKFFPKGATWDILNLAEALLEQAMIGPSPNPLILSYLKYAISSQMVSCSSVLTAISKFDDFSRDLCVQALLDIMDMFCDRLSCHGKAEECIGLCRALLSALHWLLRCTAASAERLQEGLEAGTPAPGEKQLALCLQCLEKTLSSTKNRALLHIAKLEEASSWTAIEHSLLKLGEILANLSNPQLRSQAERCGTLIRSIPSMLSVHSEQLHKTGFPTIHALILLEGTMNLTGEMQPLVEQLMMVKRMQHIPTPLFVLEIWKACFVGLIESPEGTQELKWTAFTYLKIPQVLVKLKKYFHGEKDFTEDVNCAFEFLLKLTPLLDKADQRCNCDCTNFLLQECNKQGLLSEVNFASLVGKRTADRDPQLKSSENANIQPNPGLILRAEPTVTNILKTMDADHSKSPEGLLGVLGHMLSGKSLDLLLAAAAATGKLKSFARKFINLNEFTTHGSGESTKTASVRALLFDISFLMLCHVAQTYGSEVILSESSSGEEVPFFETWMQTCMPEEGKILNPDHPCFRPDSTKVESLVALLNNSSEMKLVQMKWHEACLSISAAILEILNAWENGVLAFESIQKITDNIKGKVCSLAVCAVAWLVAHVRMLGLDEREKSLQMIRQLAGPLYSENTLQFYNERVVIMNSILEHMCADVLQQTATQIKFPSTGVDTMPYWNLLPPKRPIKEVLTDIFAKVLEKGWVDSRSIHILDTLLHMGGVYWFCNNLIKELLKETRKEHTLRAVQLLYSIFCLDMQQVTLVLLGHILPGLLTDSSKWHSLMDPPGTALAKLAVWCALSSYSSHKGQASSRQKKRHREDIEDYVSLFPVEDMQPSKLMRLLSSSDDDANILSSPTDRSMNSSLSASQLHTVNMRDPLNRVLANLFLLISSILGSRTAGPHTQFVQWFMEECVGCLEQDSRGSILQFMPFTTVSELVKVSAMSSPKVVLAITDLSLPLGRQVAAKAIAAL

Assays:
Experiment in all cases: cryo-EM structure
MED27 = target: T1, MED27
MED17 = target: T2, MED17
MED1 = MED1 (Mus musculus (endogenous in CH12 cells), UniProt Q925J9 1-1575)
MED1, sequence (Q925J9 whole entry): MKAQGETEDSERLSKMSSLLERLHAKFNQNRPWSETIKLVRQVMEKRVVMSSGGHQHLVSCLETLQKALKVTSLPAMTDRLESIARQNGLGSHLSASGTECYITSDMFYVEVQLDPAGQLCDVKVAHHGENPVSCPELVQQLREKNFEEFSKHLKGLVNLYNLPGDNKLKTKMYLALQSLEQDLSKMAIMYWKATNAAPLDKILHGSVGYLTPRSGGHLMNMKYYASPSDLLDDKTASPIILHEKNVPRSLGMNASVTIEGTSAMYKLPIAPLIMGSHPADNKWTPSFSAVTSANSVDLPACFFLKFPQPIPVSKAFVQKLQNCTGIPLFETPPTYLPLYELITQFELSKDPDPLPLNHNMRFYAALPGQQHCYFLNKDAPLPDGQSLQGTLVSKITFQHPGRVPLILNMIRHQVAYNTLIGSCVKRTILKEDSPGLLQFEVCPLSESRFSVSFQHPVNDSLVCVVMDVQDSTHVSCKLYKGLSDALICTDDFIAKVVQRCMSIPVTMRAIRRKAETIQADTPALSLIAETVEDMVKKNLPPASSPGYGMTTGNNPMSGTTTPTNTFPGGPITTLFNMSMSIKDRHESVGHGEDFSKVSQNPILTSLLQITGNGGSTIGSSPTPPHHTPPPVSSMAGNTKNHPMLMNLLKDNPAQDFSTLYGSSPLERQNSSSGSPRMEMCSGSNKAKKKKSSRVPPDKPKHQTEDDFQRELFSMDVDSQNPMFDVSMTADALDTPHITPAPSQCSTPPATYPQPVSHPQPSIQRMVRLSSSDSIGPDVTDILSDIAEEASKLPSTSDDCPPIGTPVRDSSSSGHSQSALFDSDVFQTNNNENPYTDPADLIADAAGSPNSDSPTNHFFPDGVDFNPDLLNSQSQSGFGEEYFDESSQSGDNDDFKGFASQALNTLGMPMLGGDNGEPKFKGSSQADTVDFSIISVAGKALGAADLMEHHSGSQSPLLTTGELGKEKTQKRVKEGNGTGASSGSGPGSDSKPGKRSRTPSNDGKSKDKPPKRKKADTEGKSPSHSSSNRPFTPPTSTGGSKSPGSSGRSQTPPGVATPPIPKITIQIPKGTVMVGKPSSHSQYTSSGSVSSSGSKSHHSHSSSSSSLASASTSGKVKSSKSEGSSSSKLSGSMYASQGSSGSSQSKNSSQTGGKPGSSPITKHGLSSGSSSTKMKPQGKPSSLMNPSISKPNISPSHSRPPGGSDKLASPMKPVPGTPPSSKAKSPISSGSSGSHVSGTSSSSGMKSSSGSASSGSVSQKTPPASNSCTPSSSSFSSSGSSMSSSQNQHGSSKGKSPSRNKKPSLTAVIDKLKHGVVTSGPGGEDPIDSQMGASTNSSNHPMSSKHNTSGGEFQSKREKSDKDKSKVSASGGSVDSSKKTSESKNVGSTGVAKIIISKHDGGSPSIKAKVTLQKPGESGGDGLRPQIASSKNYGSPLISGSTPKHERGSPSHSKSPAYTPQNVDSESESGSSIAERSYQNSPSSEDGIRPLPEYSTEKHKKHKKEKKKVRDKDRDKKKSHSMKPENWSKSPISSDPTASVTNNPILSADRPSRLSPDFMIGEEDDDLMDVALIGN

MED23 = target: T3, MED23
MED24 = target: B4

Binder: B1
binding result (MED27): binds
binding result (MED17): binds

Binder: B2
binding result (MED1): binds

Binder: B3
binding result (MED23): binds
binding result (MED24): binds

Binder: B4
binding result (MED1): binds

From paper doi:10.1101/2020.10.05.326918 (bioRxiv, 2020)
